The results in this text go back to article PMC3567257 (Biochemistry, 2012).

First the molecules themselves.
B1: GST-JARID1A PHD3 (domain or fragment, UniProt P29375 1601-1660, looked up)
chain: EESDDENAVCAAQNCQRPCKDKVDWVQCDGGCDEWFHQVCVGVSPEMAENEDYICINCAK
B2: H3(1-14)K4me3K14fluo (peptide, UniProt P68431 2-15, looked up)
peptide: ARTKQTARKSTGGK
modifications: trimethyl-lysine at position 4; 5-carboxyfluorescein on lysine 14
B3: H3(1-14)K4unmodifiedK14fluo (peptide, UniProt P68431 2-15, looked up)
peptide: ARTKQTARKSTGGK(5FAM)

No end group written: not given here. *: point of attachment. 5FAM = O=C1OC2(c3ccc(O)cc3Oc3cc(O)ccc32)c2ccc(C(=O)*)cc21 A value given as a limit tells only on which side of the number the result lay.

The target in the experiment “H3(1-14)K4me3K14fluo” is B2. Description: fluorescence polarisation.
Another experiment has as its target T1, GST-JARID1A PHD3 D1624N (UniProt P29375 1601-1660, D1624N).
T1 sequence (looked up): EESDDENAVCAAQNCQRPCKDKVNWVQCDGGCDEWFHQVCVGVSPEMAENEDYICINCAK
Description: fluorescence polarisation.

In a further experiment the target is T2, GST-JARID1A PHD3 D1624A (UniProt P29375 1601-1660, D1624A).
T2 sequence (looked up): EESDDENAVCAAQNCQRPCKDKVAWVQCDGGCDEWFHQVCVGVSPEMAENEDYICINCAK
Description: fluorescence polarisation. In general terms: Fluorescence polarisation rises when a labelled molecule tumbles more slowly, as on binding a larger partner.

In another experiment the target is T3, GST-JARID1A PHD3 D1629N (UniProt P29375 1601-1660, D1629N).
T3 sequence (looked up): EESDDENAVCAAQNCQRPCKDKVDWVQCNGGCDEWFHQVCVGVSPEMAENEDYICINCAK
Description: fluorescence polarisation.

The experiment “GST-JARID1A PHD3” addresses B1. Description: fluorescence polarisation.
Another experiment concerns the target T4, GST-JARID1A PHD3 D1629A (UniProt P29375 1601-1660, D1629A).
T4 sequence (looked up): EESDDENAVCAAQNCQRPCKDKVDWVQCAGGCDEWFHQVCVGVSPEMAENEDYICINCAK
Description: fluorescence polarisation.

Experiment [1] has as its target B3. Description: fluorescence polarisation.
Experiment [2] addresses T5, (HQ)5-HaloTag-JMJD2A double tudor domain (UniProt O75164 895-1011).
T5 sequence (looked up): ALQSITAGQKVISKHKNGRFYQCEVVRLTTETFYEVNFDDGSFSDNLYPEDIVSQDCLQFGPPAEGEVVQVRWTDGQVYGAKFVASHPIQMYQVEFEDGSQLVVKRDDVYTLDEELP
Description: HaloTag plate binding assay.

Experiment [3] has as its target T6, (HQ)5-HaloTag-JARID1A PHD3 (UniProt P29375 1601-1660).
T6 sequence (looked up): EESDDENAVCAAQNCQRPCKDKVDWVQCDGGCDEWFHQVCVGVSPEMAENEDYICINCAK
Description: HaloTag plate binding assay.

The target in experiment [4] is T6, (HQ)5-HaloTag-JARID1A PHD3. Description: pull-down.
A further experiment addresses T7, H3(1-19)K9me3K19fluo (UniProt P68431 2-20, trimethyl-lysine at position 9; fluorescein on lysine 19 (K19fluo)).
T7 chain: ARTKQTARKSTGGKAPRKK
Description: fluorescence polarisation.

The target in a further experiment is T8, (HQ)5-HaloTag-AIRE PHD1 (UniProt O43918 293-354).
T8 sequence (looked up): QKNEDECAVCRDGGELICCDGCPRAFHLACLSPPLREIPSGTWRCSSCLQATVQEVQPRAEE
Description: HaloTag plate binding assay.

For a further experiment, the target named is (HQ)5-HaloTag-BHC80 PHD (UniProt Q96BD5 486-543).

Turning to B1, in the experiment with H3(1-14)K4me3K14fluo, the “protein concentration at 90% fraction bound” value came out at 1 µM.

With B2, the Kd with GST-JARID1A PHD3 D1624N stood at 634 ± 80 nM; with GST-JARID1A PHD3 D1624A it was 1150 ± 145 nM; in the experiment with GST-JARID1A PHD3 D1629N it was 3.81 ± 0.551 µM; in the experiment with GST-JARID1A PHD3 it was 0.294 ± 0.046 µM; in the experiment with GST-JARID1A PHD3 D1629A, 4.05 ± 0.691 µM.

In the experiment with GST-JARID1A PHD3, B3 gave an equilibrium dissociation constant (Kd) of 9.35 ± 1.57 µM.

B4: GST-JMJD2A DTD (domain or fragment, UniProt O75164 895-1011, looked up)
chain: ALQSITAGQKVISKHKNGRFYQCEVVRLTTETFYEVNFDDGSFSDNLYPEDIVSQDCLQFGPPAEGEVVQVRWTDGQVYGAKFVASHPIQMYQVEFEDGSQLVVKRDDVYTLDEELP
As for B4, the “protein concentration at 90% fraction bound” value with H3(1-14)K4me3K14fluo amounted to 4 µM.

B5: GST-AIRE PHD1 (domain or fragment, UniProt O43918 293-354, looked up)
chain: QKNEDECAVCRDGGELICCDGCPRAFHLACLSPPLREIPSGTWRCSSCLQATVQEVQPRAEE
As to B5, in experiment [1], the “protein concentration at 90% fraction bound” value is 4 µM.

On to ARTKQTARKSTEW (Kme3 (trimethyl-lysine) at position 4; E(PEG-biotin) at position 12) [biotinylated histone H3 (1-11) peptide trimethylated at lysine 4], for which, in [2], the binding result was “binds”.

ARTKQTARKSTW (Kme3 (trimethyl-lysine) at position 4) [unlabeled (no biotin) histone H3 (1-11) K4me3 peptide]: the results for the IC50 in [3] and in experiment [4] were 2970 ± 350 nM and 13.6 ± 4.5 µM, respectively.

B6: GST-RAG2 PHD (domain or fragment, UniProt P21784 414-487, looked up)
chain: GYWITCCPTCDVDINTWVPFYSTELNKPAMIYCSHGDGHWVHAQCMDLEERTLIHLSEGSNKYYCNEHVQIARA
Take B6: the “protein concentration at 90% fraction bound” value in the experiment with H3(1-14)K4me3K14fluo came out at 25 µM.

B7: GST-BHC80 PHD (domain or fragment, UniProt Q96BD5 486-543, looked up)
chain: IHEDFCSVCRKSGQLLMCDTCSRVYHLDCLDPPLKTIPKGMWICPRCQDQMLKKEEAI
Consider B7, for which the “protein concentration at 90% fraction bound” value in [1] was 60 µM.

B8: GST-UHRF1 TTD (domain or fragment)
chain: MWDETELGLYKVNEYVDARDTNMGAWFEAQVVRVTRKAPSRDEPCSSTSRPALEEDVIYHVKYDDYPENGVVQMNSRDVRARARTIIKWQDLEVGQVVMLNYNPDNPKERGFWYDAEISRKRETRTARELYANVVLGDDSLNDCRIIFVDEVFKIERPGE
B8: the “protein concentration at 90% fraction bound” value with H3(1-19)K9me3K19fluo came out at 18 µM.

As to ARTKQTARKSTEW (E(PEG-biotin) at position 12) [biotinylated histone H3 (1-11) peptide, unmethylated], in the experiment with (HQ)5-HaloTag-AIRE PHD1, the binding result was “binds”. The Kd with (HQ)5-HaloTag-BHC80 PHD was more than 15 µM.

As a reminder, the Kd is the concentration at which binding is half-saturated. As a reminder, the IC50 is the midpoint of a concentration-inhibition curve.
